According to PMC2175515, “Hfq stimulates the activity of the CCA-adding enzyme”:

Biological target: Hfq (Escherichia coli, UniProt P0A6X3 1-102)
Assay: competition; competitor 20-600 fmol vs 20 fmol labelled tRNA (N1); Same conditions as the CCA-addition assay (30 °C, 1 and 10 min); buffer, salt and pH not in the material; native 6% polyacrylamide gel
Details: protein: recombinant; chain copies: 6

Sequence of Hfq (P0A6X3 whole entry): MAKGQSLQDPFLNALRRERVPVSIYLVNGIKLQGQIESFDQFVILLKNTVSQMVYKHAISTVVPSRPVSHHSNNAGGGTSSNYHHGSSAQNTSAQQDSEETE

B1: pCR 2.1 TOPO run-off transcript (ssRNA)
RNA: GGGCGAAUUGGGCCCUCUAGAUGCAUGCUCGAGCGGCCGCCAGUGUGAUGGAU
B1: no binding.
